Measured values from patent US20240254222A1 (Bayer, published 2024).

T1: Rat Semaphorin3A-Sema Domain, TPP-19120 (rat, UniProt Q63548 21-569)
T1 construct: produced inhouse
T1 sequence: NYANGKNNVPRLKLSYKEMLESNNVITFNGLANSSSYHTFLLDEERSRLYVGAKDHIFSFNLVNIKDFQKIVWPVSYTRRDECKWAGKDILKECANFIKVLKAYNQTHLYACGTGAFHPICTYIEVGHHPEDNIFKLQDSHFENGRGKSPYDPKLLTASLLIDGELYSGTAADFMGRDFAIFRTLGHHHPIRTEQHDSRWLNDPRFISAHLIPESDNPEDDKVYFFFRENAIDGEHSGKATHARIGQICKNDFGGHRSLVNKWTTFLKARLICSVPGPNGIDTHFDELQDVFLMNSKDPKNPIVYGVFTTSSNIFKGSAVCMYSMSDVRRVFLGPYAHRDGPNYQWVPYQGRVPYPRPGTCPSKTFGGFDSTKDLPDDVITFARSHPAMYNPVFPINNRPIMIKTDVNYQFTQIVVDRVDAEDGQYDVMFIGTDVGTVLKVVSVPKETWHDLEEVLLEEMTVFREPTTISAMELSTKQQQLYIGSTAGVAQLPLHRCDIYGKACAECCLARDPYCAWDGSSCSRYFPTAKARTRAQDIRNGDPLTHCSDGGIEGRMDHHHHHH

T2: Dog Semaphorin3A-Sema Domain, TPP-19121 (dog, UniProt Q63548 21-569 (rat entry), limits assumed)
T2 construct: produced inhouse
T2 chain: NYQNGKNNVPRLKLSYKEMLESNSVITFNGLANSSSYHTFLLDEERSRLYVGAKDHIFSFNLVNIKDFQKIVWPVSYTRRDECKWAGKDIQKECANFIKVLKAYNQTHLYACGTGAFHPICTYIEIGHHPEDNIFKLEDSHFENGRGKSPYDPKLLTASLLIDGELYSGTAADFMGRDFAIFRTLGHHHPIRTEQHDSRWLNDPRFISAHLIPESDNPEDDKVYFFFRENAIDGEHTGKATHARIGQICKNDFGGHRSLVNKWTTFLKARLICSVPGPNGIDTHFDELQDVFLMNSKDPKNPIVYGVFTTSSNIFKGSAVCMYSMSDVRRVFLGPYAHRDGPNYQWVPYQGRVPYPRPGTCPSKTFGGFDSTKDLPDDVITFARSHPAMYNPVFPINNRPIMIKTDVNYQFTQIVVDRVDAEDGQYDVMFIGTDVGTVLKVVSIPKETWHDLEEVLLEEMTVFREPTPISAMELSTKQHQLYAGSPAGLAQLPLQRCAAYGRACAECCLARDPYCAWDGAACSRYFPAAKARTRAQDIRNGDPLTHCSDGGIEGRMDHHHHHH

T3: Pig Semaphorin3A-Sema Domain, TPP-20176 (pig, UniProt Q63548 21-569 (rat entry))
T3 construct: produced inhouse
T3 chain: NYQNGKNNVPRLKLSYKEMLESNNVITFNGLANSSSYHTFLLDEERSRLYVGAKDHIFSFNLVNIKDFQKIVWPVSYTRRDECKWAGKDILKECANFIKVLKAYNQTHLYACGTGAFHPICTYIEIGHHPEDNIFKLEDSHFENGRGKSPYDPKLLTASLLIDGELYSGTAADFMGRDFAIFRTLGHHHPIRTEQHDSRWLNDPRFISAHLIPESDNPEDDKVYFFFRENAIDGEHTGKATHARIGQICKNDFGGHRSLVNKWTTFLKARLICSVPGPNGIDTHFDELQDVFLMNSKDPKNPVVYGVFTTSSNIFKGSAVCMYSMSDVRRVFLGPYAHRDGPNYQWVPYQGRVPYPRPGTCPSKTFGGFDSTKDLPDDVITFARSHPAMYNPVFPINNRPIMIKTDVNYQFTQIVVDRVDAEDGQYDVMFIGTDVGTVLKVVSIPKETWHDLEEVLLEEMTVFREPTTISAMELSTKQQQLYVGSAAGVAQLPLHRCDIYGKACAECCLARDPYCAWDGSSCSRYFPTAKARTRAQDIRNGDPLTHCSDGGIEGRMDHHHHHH


Assays:
[1] = molecular target: T1, Rat Semaphorin3A-Sema Domain, TPP-19120; test: SPR, captured antibody, Sema3A domain analyte
Method in brief: (§1)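 SPR on Biacore T200/8K+ at 25° C in HBS P+ with 300 mM NaCl, 0.75 mM CaCl₂, 2.5 mM MgCl₂, 1 mg/ml BSA; antibodies captured by anti-human Fc, or anti-human Fab for Fc-tagged analytes. Fc-Sema3A at 1.56-200 nM; monovalent Sema domains at […]-3.125 nM multi-cycle or 100 nM binding only. Double-referenced 1:1 Langmuir fit.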

[2] = molecular target: T2, Dog Semaphorin3A-Sema Domain, TPP-19121; test: SPR, captured antibody, Sema3A domain analyte
Method in brief: as §1

[3] = molecular target: T3, Pig Semaphorin3A-Sema Domain, TPP-20176; test: SPR, captured antibody, Sema3A domain analyte
Method in brief: as §1

[4] = molecular target: T4, Human Semaphorin3A-Fc (R&D Systems), TPP-13211 (human); test: ELISA, coated Sema3A-Fc, antibody 0.00015-10 ug/ml
T4 construct: R&D Systems 1250-S3; also called recombinant human Sema3A-Fc chimera
T4 sequence (chain, as listed by the source limits assumed): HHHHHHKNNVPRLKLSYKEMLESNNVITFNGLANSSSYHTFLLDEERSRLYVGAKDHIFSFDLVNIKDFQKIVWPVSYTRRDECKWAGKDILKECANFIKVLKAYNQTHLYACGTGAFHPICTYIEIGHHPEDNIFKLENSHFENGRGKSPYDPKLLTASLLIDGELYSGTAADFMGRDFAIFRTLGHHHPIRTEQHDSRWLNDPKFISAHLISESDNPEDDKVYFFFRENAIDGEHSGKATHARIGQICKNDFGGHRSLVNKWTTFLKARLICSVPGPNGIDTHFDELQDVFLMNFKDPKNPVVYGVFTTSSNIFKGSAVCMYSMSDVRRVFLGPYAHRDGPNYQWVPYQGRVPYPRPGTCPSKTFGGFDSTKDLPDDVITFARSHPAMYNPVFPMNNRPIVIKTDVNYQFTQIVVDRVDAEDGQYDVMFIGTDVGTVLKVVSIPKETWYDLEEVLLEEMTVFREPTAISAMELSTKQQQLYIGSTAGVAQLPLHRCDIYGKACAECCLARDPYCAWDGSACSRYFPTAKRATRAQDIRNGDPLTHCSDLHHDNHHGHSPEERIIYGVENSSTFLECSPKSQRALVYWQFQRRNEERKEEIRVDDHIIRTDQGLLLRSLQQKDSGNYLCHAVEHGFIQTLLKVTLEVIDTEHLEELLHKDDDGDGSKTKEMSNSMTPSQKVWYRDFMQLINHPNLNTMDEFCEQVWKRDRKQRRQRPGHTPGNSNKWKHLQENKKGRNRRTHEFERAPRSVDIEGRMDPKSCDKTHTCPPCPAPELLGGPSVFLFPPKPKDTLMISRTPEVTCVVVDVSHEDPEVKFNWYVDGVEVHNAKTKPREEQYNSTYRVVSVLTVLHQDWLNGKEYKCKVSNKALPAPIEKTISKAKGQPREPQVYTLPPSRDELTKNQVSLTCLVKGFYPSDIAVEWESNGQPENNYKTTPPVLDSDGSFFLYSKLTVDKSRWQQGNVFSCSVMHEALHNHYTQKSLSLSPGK
Description: For the assessment of binding selectivity to Sema3A vs Sema3G, 1 nM recombinant human Sema3A-Fc chimera (R&D Systems) or recombinant human GST—Sema3G (Abnova) were coated on Maxisorb plates, incubated with antibodies in a dose-response curve from 0.00015-10 μg/ml, and the binding of antibodies quantified using HRP coupled anti-human antiserum and chemiluminescent substrate.

[5] = molecular target: T4, Human Semaphorin3A-Fc (R&D Systems), …; test: cell-based or functional assay

Row | Binder | Kd [1] [nM] | Kd [2] [nM] | Kd [3] [nM] | EC50 [4] [nM] | EC50 [nM], MCM assay [5] [nM] | binding result [1] | binding result [2] | binding result [3]
1 | TPP-30789 (antibody, human IgG1, kappa, V domains shown, prior art, WO 2020/225400; also called BI clone II; Böhringer (BI) Clone II) VH: EVQLVESGGGLVQPGGSLRLSCAASGFPFSSYYMSWVRQAPGKGLEWVSTIIKSGGYAYYPDSVKDRFTISRDNSKNTLYLQMSSLRAEDTAVYYCVRGGQGAMDYWGQGTTVTVSS VL: EIVLTQSPATLSLSPGERATLSCRASQSIGDYLHWYQQKPGQAPRLLIKYASQSISGIPARFSGSGSGTDFTLTITSLEPEDFAVYYCQQGYSFPYTFGGGTKLEIKR | 0.026 | 0.11 | 0.039 | 0.1 | – | – | – | –
2 | TPP-30790 (antibody, human IgG1, kappa, V domains shown, prior art, WO 2020/225400; also called BI clone III; Böhringer (BI) Clone III) VH: EVQLVESGGGLVQLGGSLRLSCAASGFTFSSYYMSWVRQAPGKGLEWVSTIIKSGGYAYYPDSVKDRFTISRDNSKNTLYLQMNSLRAEDTAVYYCVKGGQGAMDYWGQGTTVTVSS VL: EIVLTQSPATLSLSPGERATLSCRASQSIGDYLHWYQQKPGQAPRLLIYYASQSISGIPARFSGSGSGTDFTLTISSLEPEDFAVYYCQQGYSFPYTFGGGTKLEIKR | 0.022 | 0.1 | 0.036 | 0.08 | – | – | – | –
3 | TPP-23338 (antibody, human IgG4 S228P, lambda, V domains shown) VH: EVQLLESGGGLVQPGGSLRLSCAASGFTFSSYAMSWVRQAPGKGLEWVSAIGYGGDTYYADSVKGRFTISRDNSKNTLYLQMNSLRAEDTAVYYCARRDDYTSRDAFDYWGQGTLVTVSS VL: not shown | – | 0.053 | 0.046 | 9.6 | 0.6 | – | – | –
4 | TPP-15370 (antibody, human IgG1, lambda, V domains shown, human IgG1; also called IgG1, hit from panning; parental mAb) VH: EVQLLESGGGLVQPGGSLRLSCAASGFTFSSYGMHWVRQAPGKGLEWVSAIGTGGDTYYADSVMGRFTISRDNSKNTLYLQMNSLRAEDTAVYYCARRDDYTSRDAFDVWGQGTLVTVSS VL: not shown | 14 | 22 | 9 | – | 4.13 | – | – | –
5 | TPP-23345 (antibody, human IgG4 S228P, lambda, V domains shown) VH: EVQLLESGGGLVQPGGSLRLSCAASGFTFSSYAMSWVRQAPGKGLEWVSAIGYGGDTYYADSVKGRFTISRDNSKNTLYLQMNSLRAEDTAVYYCARRDDYTSRDAFDYWGQGTLVTVSS VL: not shown | – | 0.046 | 0.055 | – | 0.93 | – | – | –
6 | TPP-23346 (antibody, human IgG4 S228P, lambda, V domains shown) VH: EVQLLESGGGLVQPGGSLRLSCAASGFTFYSYAMLWVRQAPGKGLEWVSAIGTGGDTYYADSVKGRFTISRDNSKNTLYLQMNSLRAEDTAVYYCARRDDYTSRDAFDYWGQGTLVTVSS VL: not shown | – | 0.061 | 0.058 | – | 1.27 | – | – | –
7 | TPP-23341 (antibody, human IgG4 S228P, lambda, V domains shown) VH: EVQLLESGGGLVQPGGSLRLSCAASGFTFSSYAMSWVRQAPGKGLEWVSAIGYGGDTYYADSVKGRFTISRDNSKNTLYLQMNSLRAEDTAVYYCARRDDYTSRDAFDYWGQGTLVTVSS VL: not shown | – | 0.084 | 0.086 | 21.3 | 0.9 | – | – | –
8 | TPP-23375 (antibody, human IgG4 S228P, lambda, V domains shown) VH: EVQLLESGGGLVQPGGSLRLSCAASGFTFYSYAMSWVRQAPGKGLEWVSAIGYGGDTYYADSVKGRFTISRDNSKNTLYLQMNSLRAEDTAVYYCARRDDYTSRDAFDYWGQGTLVTVSS VL: not shown | – | 0.045 | 0.047 | 7.7 | 1.03 | – | – | –
9 | TPP-23340 (antibody, human IgG4 S228P, lambda, V domains shown) VH: EVQLLESGGGLVQPGGSLRLSCAASGFTFSSYAMSWVRQAPGKGLEWVSAIGYGGDTYYADSVKGRFTISRDNSKNTLYLQMNSLRAEDTAVYYCARRDDYTSRDAFDYWGQGTLVTVSS VL: not shown | – | 0.058 | 0.062 | 12.3 | 0.87 | – | – | –
10 | TPP-23347 (antibody, human IgG4 S228P, lambda, V domains shown) VH: EVQLLESGGGLVQPGGSLRLSCAASGFTFYSYAMLWVRQAPGKGLEWVSAIGTGGDTYYADSVKGRFTISRDNSKNTLYLQMNSLRAEDTAVYYCARRDDYTSRDAFDYWGQGTLVTVSS VL: not shown | – | 0.051 | 0.053 | 8.4 | 0.67 | – | – | –
11 | TPP-23373 (antibody, human IgG4 S228P, lambda, V domains shown) VH: EVQLLESGGGLVQPGGSLRLSCAASGFTFYSYAMSWVRQAPGKGLEWVSAIGYGGDTYYADSVKGRFTISRDNSKNTLYLQMNSLRAEDTAVYYCARRDDYTSRDAFDYWGQGTLVTVSS VL: not shown | – | 0.1 | 0.078 | 17.6 | 0.63 | – | – | –
12 | TPP-30792 (antibody, human IgG1, lambda, V domains shown, IgG1; prior art, WO 2020/261281; also called 3H4 Univ Ramot; 3H4 (Ramot) Clon I) V domain 1: EVQLLESGGGLVQPGGSLRLSCAASGFTFRSYAVHWVRQAPGKGLEWVSSTEGSGVGTSYTDSVKGRFTISRDNSKNTLYLQMNSLRAEDTAVYYCARMLGGGNPLDYLDYWGQGTLVTVSS V domain 2: QSVLTQPPSASGTPGQRVTISCSGSSSNLGEGYDVHWYQQLPGKAPKLLIYYSDFRPSGVSDRFSGSKSGTSASLAISGLQSEDEADYYCAAWDDSLSSQVFGGGTQVTVLG | – | – | – | – | – | no binding | no binding | no binding
13 | TPP-15374 (antibody, human IgG1, lambda, V domains shown, human IgG1; also called IgG1, hit from panning; parental mAb) VH: EVQLLESGGGLVQPGGSLRLSCAASGFTFSSYEMNWVRQAPGKGLEWVSGISWNSGSIGYADSVKGRFTISRDNSKNTLYLQMNSLRAEDTAVYYCARSGYSSSWFDPDFDYWGQGTLVTVSS VL: QSVLTQPPSASGTPGQRVTISCTGSSSNIGAGYDVHWYQQLPGTAPKLLIYGNSNRPSGVPDRFSGSKSGTSASLAISGLRSEDEADYYCSSYAGSNPYVVFGGGTKLTVLG | 9.8 | 19 | 7.2 | – | 5.07 | – | – | –
14 | TPP-11489 (antibody, human IgG1, lambda, human IgG1; also called Chiome; Chiome Prior Art (hIgG1)) heavy: not shown light: SYELTQPPSVSVSPGQTARITCSGGGSYTGSYYYGWYQQKPGQAPVTVIYYNNKRPSDIPERFSGSLSGTTNTLTISGVQAEDEADYYCGSADNSGDAFGTGTKVTVLGQPKAAPSVTLFPPSSEELQANKATLVCLISDFYPGAVTVAWKADSSPVKAGVETTTPSKQSNNKYAASSYLSLTPEQWKSHRSYSCQVTHEGSTVEKTVAPTECS | 33 | 50 | 100 | – | – | – | – | –
15 | TPP-17755 (antibody, human IgG1, lambda, V domains shown, also called Samsung; Samsung Prior Art F11) VH: EVQLLESGGGLVQTGGSLRLSCAASGFTFSDYAMSWVRQAPGKGLEWVSWIYYDSGSKYYADSVKGRFTISRDNSKNTLYLQMNSLRAEDTAVYYCAKLNGDFDYWGQGTLVTVSS VL: QSVLTQPPSASGTPGQRVTISCSGSSSNIGNNDVSWYQQLPGTAPKLLIYADSHRPSGVPDRFSGSKSGTSASLAISGLRSEDEADYYCGAWDSSLSGYVFGGGTKLTVLG | 5.4 | 7.5 | 4 | – | 11.3 | – | – | –
